{"source": "paper PMC5241209", "about": "“Identification and functional analysis of c.422_423InsT, a novel mutation of the HNF1A gene in a patient with diabetes”", "binders": {"B1": {"name": "GLUT2 promoter HNF1A site (dsDNA)", "DNA 1": "CTCAGTAAAGATTAACCAT", "DNA 2": "ATGGTTAATCTTTACTGAG"}}, "target": "HNF1A (rHNF1A) (UniProt P20823 1-631)", "sequence (P20823 whole entry)": "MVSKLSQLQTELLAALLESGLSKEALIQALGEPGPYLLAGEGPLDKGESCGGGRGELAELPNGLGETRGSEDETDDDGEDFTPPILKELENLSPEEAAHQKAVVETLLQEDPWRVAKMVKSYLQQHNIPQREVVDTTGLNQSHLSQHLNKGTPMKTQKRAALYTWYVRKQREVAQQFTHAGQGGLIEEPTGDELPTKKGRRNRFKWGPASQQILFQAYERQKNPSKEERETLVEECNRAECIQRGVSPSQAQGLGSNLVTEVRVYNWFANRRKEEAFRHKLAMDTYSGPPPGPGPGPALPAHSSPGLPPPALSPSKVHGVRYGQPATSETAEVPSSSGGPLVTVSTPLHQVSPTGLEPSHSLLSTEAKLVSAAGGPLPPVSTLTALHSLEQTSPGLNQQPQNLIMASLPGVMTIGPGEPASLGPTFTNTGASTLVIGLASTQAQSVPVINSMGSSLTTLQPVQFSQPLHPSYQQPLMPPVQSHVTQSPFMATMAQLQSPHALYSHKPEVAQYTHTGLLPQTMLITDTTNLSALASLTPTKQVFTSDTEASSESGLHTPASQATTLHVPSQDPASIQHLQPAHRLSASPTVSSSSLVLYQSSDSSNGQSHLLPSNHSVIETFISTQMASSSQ", "assay": "EMSA; two complexes, complex 1 more abundant; abolished by 300x unlabeled probe; 12 mM Hepes pH 7.9, 60 mM KCl, 10% glycerol, 1 mM EDTA, 1 mM MgCl2, 1 mM DTT plus DNA mix (1 mM spermidine, 1 mM MgCl2), 1 ug poly(dG/dC)·poly(dG-dC), 4 C; probe 1.29 nM (0.52 nM in mutant titration); 6% PAGE, 0.5x TBE", "settings": "protein: ivt; chain copies: 2; label: 32P 5' end (T4 PNK)", "data": [{"binder": "B1", "values": [{"measurement": "binding result", "value": "binds"}]}]}
